The values that follow come from patent US20230313217A1, “CHLOROPLAST TARGETING PEPTIDES AND CONJUGATES AND COMPOSITIONS THEREOF” (The Regents of the University of California, priority 2021, published 2023).

One data set has as its system whole plant cell DNA. As to conditions: in vivo.
The nature of data set [1]: Hydrodynamic size by dynamic light scattering. The class given is physicochemical. As to conditions: 10 mM TES buffer, pH 7. As for the experimental part: The resulting PEI-SWCNT suspension was characterized by measuring the absorbance spectra on a UV-vis absorbance spectrophotometer (UV-2600, Shimadzu). The quality of the SWCNT suspension was determined by analyzing absorbance peaks at 632 nm. This measurement was performed with triplicates. The concentration of the PEI-SWCNT was determined spectrophotometrically using the absorption value at 632 nm and utilizing the equation (absorbance at 632 nm/extinction coefficient of 0.036)=mg L^−1. The final concentration obtained after purification ranged from 18 to 30 mg/L. The nanoparticle ζ potential was measured using a Zetasizer (Nano ZS, Malvern Instruments) in samples suspended in 10 mM TES buffer pH 7.0, with 0.1 mM NaCl. The hydrodynamic size was measured using Zetasizer (Nano ZS, Malvern Instruments) in samples suspended in a 10 mM TES buffer at pH 7.
Characterization of Nanomaterials. All nanomaterials were characterized by absorbance UV-vis spectroscopy (UV-2600 Shimadzu), hydrodynamic size (Nano S), and ζ potential (Nano ZS). The nanomaterial ζ potential and hydrodynamic diameter were measured in a 10 mM TES buffer (pH 7.0). The ζ potential measurements were performed in 0.1 mM NaCl to improve conductivity and analyzed by the Hückel approximation model.^111 CD fluorescence emission was collected using a fluorescence spectrometer (Horiba PTI QM-400). […]

Data set [2] has as its system Arabidopsis leaf mesophyll tissue. The data set is described as follows: Plant cell viability assay (propidium iodide, percentage of dead cells). The class given is in vivo, Arabidopsis thaliana. As for the experimental part:
Impact of Targeted Nanomaterials on Plant Cell Viability. We investigated the viability of plant cells treated with increasing concentrations of targeted and nontargeted nanomaterials by measuring the percentage of dead plant cells. Arabidopsis leaf tissues were treated with targeted nanomaterials at 20, 100, 500 mg/L concentrations of TP-β-CDs or 2, 5, 10 mg/L of TP-pATV1-SWCNTs (FIG. 6, Table 1). Biocompatibility assays were performed up to 5 days of nanocarrier exposure before control Arabidopsis plants experienced the onset of leaf senescence marked by significant changes in chlorophyll levels (FIG. 15A). On day 7, significant differences in chlorophyll were detected in control Arabidopsis plants without nanomaterials. […] Therefore, subsequent experiments assessing the impact of targeted nanocarriers on plant cell and molecular biology were focused on biocompatible concentrations of 20 mg/L for TP-β-CDs and 2 mg/L for TP-pATV1-SWCNTs.
The percentage of intact cells was determined in Arabidopsis thaliana leaf tissues treated with TP-β-CD (20, 100, 500 mg/L) or TP-pATV1-SWCNT (2, 5, 10 mg/L) from one to five days. The nuclei of dead cells were stained with propidium iodide (PI) diluted to 1× concentration manufactures (Plant cell viability assay kit, PA0100, Sigma-Aldrich). Leaf discs were collected and incubated in PI dye for 15 minutes before confocal analysis. PI can enter cells with damaged membranes, and bind to double-stranded nucleic acids in non-viable cells. […] The total number of cells was determined using chloroplast autofluorescence to identify the leaf mesophyll cell boundaries. The leaf disc surface was washed with DI water to remove the residual dye and mounted on a microscope glass slide for imaging by laser scanning confocal microscope (TCS SP5, Leica Microsystems, Germany). Confocal imaging settings were as follows: ×40 wet objective (Leica Microsystems, Germany), propidium iodide dye excitation by a 543 nm laser (40% power), and PMT emission detection range set to 590-630 nm with Pinhole size set to 3 airy units.

Another data set relates to plant cell membranes. Kind of data set: Plant cell membrane intactness (PI staining, confocal). The conditions noted are these: after 5 days of exposure; 20 mg/L / 2 mg/L. It counts as in vivo, Arabidopsis thaliana. The source says: (§1) Interactions of Targeted Carbon Nanostructures with Plant Cell and Chloroplast Membranes. Damage to plant lipid membranes may cause ion and molecule permeability changes across the membrane, interruption of metabolic processes, intracellular signaling, and trafficking of biomolecules.^65,66 The application of targeted nanostructures with high charge allows penetration of plant cell barriers and localization inside organelles that could cause disruption in lipid membrane integrity. Plant cell membrane intactness in leaves treated with TP-β-CDs or TP-pATV1-SWCNTs (Table 1) was assessed by staining dead cells with propidium iodide (PI) dye followed by imaging under confocal microscopy (FIG. 7A). PI is a nonpermeable dye that only crosses the cell membranes when they are damaged. The overall percentage of intact cells without PI stained nuclei was calculated relative to the total number of cells (FIG. 7B). […] Both TP-β-CDs and TP-pATV1-SWCNTs maintained more than 93% of plant cells with intact membranes after 1 and 5 days of exposure, similar to controls without nanoparticles (FIG. 7B). […]
The percentage of intact cells was determined in Arabidopsis thaliana leaf tissues treated with TP-β-CD (20, 100, 500 mg/L) or TP-pATV1-SWCNT (2, 5, 10 mg/L) from one to five days. […] The total number of cells was determined using chloroplast autofluorescence to identify the leaf mesophyll cell boundaries. […]

The next data set has as its system isolated chloroplasts. Kind of data set: Intact chloroplast analysis by DIC microscopy. The arrangement: species or system Arabidopsis thaliana. As to conditions: 1 and 5 days, 20 mg/L / 2 mg/L.
Text: as §1
Identification of intact chloroplast was performed as reported in previous studies^4,5 with some modifications. […] The average from ten images from each of the seven biological replicates was quantified for calculating the average percentage of intact chloroplasts.

Ends that are not written are not given here.

Experimental for whole plant cell DNA: DNA was extracted from plant leaf tissue and prepared using a Quick-DNA Plant/Seed DNA Miniprep kit (Zymo) in leaf samples treated with nanomaterials from one to five days. Each DNA sample contained 150 mg of plant tissue or 1 mL of isolated chloroplast suspension collected as explained above. Samples were placed in liquid nitrogen-filled mortar and pestle, ground, and placed directly into a Zymo BashingBead Lysis Tube with 750 μL BashingBead Buffer. The mixture was homogenized on a mixer mill (Retsch MM 400) for 10 minutes at 28 Hz. The DNA extraction was performed according to the manufacturer's instructions (zymoresearch.com) and concentrations were measured using a Nanodrop ND-1000 Spectrophotometer. Samples were stored at −20° C. until used for the 8-OHdG DNA damage biomarker assay.
We determined the amount of oxidative DNA damage in plant leaves treated with nanomaterials for one day or five days using an enzyme-linked immunosorbent assay (ELISA) for 8-hydroxydeoxyguanosine (8-OHdG). The OxiSelect™ Oxidative DNA Damage ELISA Kit (Cat# STA-320, Cell Biolabs, inc.) quantifies the amount of 8-OHdG in isolated DNA samples from plant leaf tissue or isolated chloroplast suspensions. […] Sample absorbance was read at 450 nm on an Infinite MPlex plate reader (Tecan).

With “TP-β-CD: carbon dots with β-cyclodextrin molecular baskets covalently bonded to chloroplast targeting peptide MASSMLSSATMVGGC (SEQ ID NO:5) (also: covalently bonded to carbon dots with β-cyclodextrin, site not given here)”, in the data set on whole plant cell DNA, the “increase in oxidative damage to whole plant cell DNA” value is reported as 2 fold. In data set [1], the “hydrodynamic size (DLS)” value worked out at 27.8±5.8 nm. In addition, the biocompatible concentration in data set [2] (Arabidopsis leaves, up to 5 days) was determined as 20 mg/L. The “percentage of dead cells” value worked out at 6% in data set [2] (TP-β-CD 20 mg/L, TP-pATV1-SWCNT 2 mg/L, summary); 20.0±4.8% in data set [2] (day 5, 100 mg/L); 23.4±4.8% in data set [2] (day 5, 500 mg/L). For the same substance, in data set [2] (after 5 days of exposure, TP-β-CDs 20 mg/L, TP-pATV1-SWCNTs 2 mg/L), the “percentage of dead cells compared to control plants” value is listed as “no significant differences”. Moreover, the “plant dead cells relative to controls without nanoparticles” value in data set [2] (day 1, TP-β-CDs 20 mg/L, TP-pATV1-SWCNTs 2 mg/L) is reported as “no significant differences”. Moreover, the “cell and chloroplast membrane damage” value with plant cell membranes was “no permanent cell and chloroplast membrane damage”. The chloroplast membrane intactness result with isolated chloroplasts is “did not affect chloroplast membrane damage”.
